Laboratory results: patent US20060039904A1 (AstraZeneca / MedImmune, published 2006)

Key:
[1] = target: T1, FcγRIIIA (soluble receptor used as analyte in the BIAcore runs) (human, UniProt P08637 17-208); assay: BIAcore run 1, IgG immobilized, soluble FcγRIIIA, Scatchard plot
[2] = target: T1, FcγRIIIA (soluble receptor used as …); assay: BIAcore run 2, IgG immobilized, soluble FcγRIIIA, Scatchard plot
[3] = target: T1, FcγRIIIA (soluble receptor used as …); assay: BIAcore run 1, ratio of isotherm KD values against wild type Vitaxin®
[4] = target: T1, FcγRIIIA (soluble receptor used as …); assay: BIAcore run 2, ratio of isotherm KD values against wild type Vitaxin®
[5] = target: T1, FcγRIIIA (soluble receptor used as …); assay: BIAcore run 1, IgG immobilized, soluble FcγRIIIA, steady-state isotherm
[6] = target: T1, FcγRIIIA (soluble receptor used as …); assay: BIAcore run 2, IgG immobilized, soluble FcγRIIIA, steady-state isotherm

T1 sequence (P08637 17-208): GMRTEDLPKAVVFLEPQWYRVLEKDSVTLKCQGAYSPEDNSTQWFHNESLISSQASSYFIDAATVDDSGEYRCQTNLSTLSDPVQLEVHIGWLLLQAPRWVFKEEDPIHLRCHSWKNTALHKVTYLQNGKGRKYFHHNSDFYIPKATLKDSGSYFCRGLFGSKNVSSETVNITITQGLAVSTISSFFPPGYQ

Kd [1]	Kd [2]	Fold increase over WT [3]	Fold increase over WT [4]	Kd [5]	Kd [6]	Binder
458 nM	1220 nM	6.5 fold	7 fold	458 nM	1280 nM	Vitaxin®-1M (Vitaxin® Fc variant I332E, IgG1) (antibody, Full length IgG1 with I332E in the Fc; expressed in 293H/HEK293 cells; also called I332E Fc variant; Vitaxin® Fc (I332E) variant) heavy: not shown VL: EIVLTQSPATLSLSPGERATLSCQASQSISNFLHWYQQRPGQAPRLLIRYRSQSISGIPARFSGSGSGTDFTLTISSLEPEDFAVYYCQQSGSWPLTFGGGTKVEIK
					114 nM	Vitaxin®-3M (Vitaxin® Fc variant S239D/A330L/I332E, IgG1) (antibody, I332E is used here; also called Vitaxin S239D/A330L/I332E) heavy: QVQLVESGGGVVQPGRSLRLSCAASGFTFSSYDMSWVRQAPGKGLEWVAKVSSGGGSTYYLDTVQGRFTISRDNSKNTLYLQMNSLRAEDTAVYYCARHLHGSFASWGQGTTVTVSSASTKGPSVFPLAPSSKSTSGGTAALGCLVKDYFPEPVTVSWNSGALTSGVHTFPAVLQSSGLYSLSSVVTVPSSSLGTQTYICNVNHKPSNTKVDKKVEPKSCDKTHTCPPCPAPELLGGPDVFLFPPKPKDTLMISRTPEVTCVVVDVSHEDPEVKFNWYVDGVEVHNAKTKPREEQYNSTYRVVSVLTVLHQDWLNGKEYKCKVSNKALPLPEEKTISKAKGQPREPQVYTLPPSRDELTKNQVSLTCLVKGFYPSDIAVEWESNGQPENNYKTTPPVLDSDGSFFLYSKLTVDKSRWQQGNVFSCSVMHEALHNHYTQKSLSLSPGK VL: EIVLTQSPATLSLSPGERATLSCQASQSISNFLHWYQQRPGQAPRLLIRYRSQSISGIPARFSGSGSGTDFTLTISSLEPEDFAVYYCQQSGSWPLTFGGGTKVEIK
